In article PMC4270767 (PLoS ONE, 2014):

B1: Wild-type: recombinant hexa-his-tagged M. tuberculosis phosphoserine phosphatase SerB2 (Rv3042c) (protein, UniProt O53289 1-409, looked up)
chain: MPAKVSVLITVTGMDQPGVTSALFEVLAQHGVELLNVEQVVIRGRLTLGVLVSCPLDVADGTALRDDVAAAIHGVGLDVAIERSDDLPIIRQPSTHTIFVLGRPITAGAFSAVARGVAALGVNIDFIRGISDYPVTGLELRVSVPPGCVGPLQIALTKVAAEEHVDVAVEDYGLAWRTKRLIVFDVDSTLVQGEVIEMLAARAGAQGQVAAITEAAMRGELDFAESLQRRVATLAGLPATVIDDVAEQLELMPGARTTIRTLRRLGFRCGVVSGGFRRIIEPLARELMLDFVASNELEIVDGILTGRVVGPIVDRPGKAKALRDFASQYGVPMEQTVAVGDGANDIDMLGAAGLGIAFNAKPALREVADASLSHPYLDTVLFLLGVTRGEIEAADAGDCGVRRVEIPAD
modifications: full-length His6 tag
B2: ACT-domains: ACT domains of MtSerB2 alone (residues 1–165) (protein, UniProt O53289 1-165, looked up, fragment)
chain: MPAKVSVLITVTGMDQPGVTSALFEVLAQHGVELLNVEQVVIRGRLTLGVLVSCPLDVADGTALRDDVAAAIHGVGLDVAIERSDDLPIIRQPSTHTIFVLGRPITAGAFSAVARGVAALGVNIDFIRGISDYPVTGLELRVSVPPGCVGPLQIALTKVAAEEHV
modifications: ACT domains
B3: PSPD: phosphoserine phosphatase domain of MtSerB2 alone (residues 165–409) (protein, UniProt O53289 165-409, looked up, fragment)
chain: VDVAVEDYGLAWRTKRLIVFDVDSTLVQGEVIEMLAARAGAQGQVAAITEAAMRGELDFAESLQRRVATLAGLPATVIDDVAEQLELMPGARTTIRTLRRLGFRCGVVSGGFRRIIEPLARELMLDFVASNELEIVDGILTGRVVGPIVDRPGKAKALRDFASQYGVPMEQTVAVGDGANDIDMLGAAGLGIAFNAKPALREVADASLSHPYLDTVLFLLGVTRGEIEAADAGDCGVRRVEIPAD
modifications: phosphoserine phosphatase domain

Test system: THP-1 cells
Assay type: cell-based
Details: 100 µg of purified protein, 30 minutes and 2 hours

Molecule	rearrangement of microtubules
B1	striking rearrangement of microtubules
B2	almost no re-arrangement of the microtubules
B3	significant
